Data taken from patent publication US20090005294A1 (CENTRO DE INGENIERIA GENETICA Y BIOTECNOLOGIA, published 2009).
Bridges are numbered along the chain shown (N, C = ends). Where no end group is shown, it is not given here.

T1: CKII substrate peptide RRREEETEEE (optimized consensus domain for CKII phosphorylation)
T1 peptide: RRREEETEEE


Biological target: T1, CKII substrate peptide RRREEETEEE …
Experiment: cell-based or functional assay

Binder | inhibition of CKII phosphorylation of the substrate peptide (32P, cpm on filters) [%]
CKQSYLHHLLC (disulfide 1-11 (inferred)) [cyclic peptide (i) CKQSYLHHLLC] | 80
CAKQRTDPGYC (disulfide 1-11 (inferred)) [cyclic peptide (d) CAKQRTDPGYC] | 80
CWMSPRHLGTC (disulfide 1-11 (inferred)) [cyclic peptide (e) CWMSPRHLGTC] | 80
CRNCTVIQFSC (disulfide 1-11) [cyclic peptide (f) CRNCTVIQFSC] | 80
CFQPLTPLCRC (disulfide 1-11) [cyclic peptide (j) CFQPLTPLCRC] | 80
CSVRQGPVQKC (disulfide 1-11 (inferred)) [cyclic peptide (a) CSVRQGPVQKC] | 80
CQIPQRTATRC (disulfide 1-11 (inferred)) [cyclic peptide (c) CQIPQRTATRC] | 80
CQSYHELLLQC (disulfide 1-11 (inferred)) [cyclic peptide (k) CQSYHELLLQC] | 80
CPLVSLRDHSC (disulfide 1-11 (inferred)) [cyclic peptide (h) CPLVSLRDHSC] | 80
CSSCQNSPALC (disulfide 1-11) [cyclic peptide (b) CSSCQNSPALC] | 80
CHYIAGTVQGC (disulfide 1-11 (inferred)) [cyclic peptide (g) CHYIAGTVQGC] | 80
